To fix the notation:
B1: Rad26 (wild type) (enzyme, S. cerevisiae)
chain: MEDKEQQDNAKLENNESLKDLGVNVLSQSSLEEKIANDVTNFSNLQSLQQEETRLERSKTALQRYVNKKNHLTRKLNNTTRISVKQNLRDQIKNLQSDDIERVLKDIDDIQSRIKELKEQVDQGAENKGSKEGLQRPGETEKEFLIRTGKITAFGHKAGFSLDTANREYAKNDEQKDEDFEMATEQMVENLTDEDDNLSDQDYQMSGKESEDDEEEENDDKILKELEDLRFRGQPGEAKDDGDELYYQERLKKWVKQRSCGSQRSSDLPEWRRPHPNIPDAKLNSQFKIPGEIYSLLFNYQKTCVQWLYELYQQNCGGIIGDEMGLGKTIQVIAFIAALHHSGLLTGPVLIVCPATVMKQWCNEFQHWWPPLRTVILHSMGSGMASDQKFKMDENDLENLIMNSKPSDFSYEDWKNSTRTKKALESSYHLDKLIDKVVTDGHILITTYVGLRIHSDKLLKVKWQYAVLDEGHKIRNPDSEISLTCKKLKTHNRIILSGTPIQNNLTELWSLFDFIFPGKLGTLPVFQQQFVIPINIGGYANATNIQVQTGYKCAVALRDLISPYLLRRVKADVAKDLPQKKEMVLFCKLTKYQRSKYLEFLHSSDLNQIQNGKRNVLFGIDILRKICNHPDLLDRDTKRHNPDYGDPKRSGKMQVVKQLLLLWHKQGYKALLFTQSRQMLDILEEFISTKDPDLSHLNYLRMDGTTNIKGRQSLVDRFNNESFDVFLLTTRVGGLGVNLTGANRIIIFDPDWNPSTDMQARERAWRIGQKREVSIYRLMVGGSIEEKIYHRQIFKQFLTNRILTDPKQKRFFKIHELHDLFSLGGENGYSTEELNEEVQKHTENLKNSKSEESDDFEQLVNLSGVSKLESFYNGKEKKENSKTEDDRLIEGLLGGESNLETVMSHDSVVNSHAGSSSSNIITKEASRVAIEAVNALRKSRKKITKQYEIGTPTWTGRFGKAGKIRKRDPLKNKLTGSAAILGNITKSQKEASKEARQENYDDGITFARSKEINSNTKTLENIRAYLQKQNNFFSSSVSILNSIGVSLSDKEDVIKVRALLKTIAQFDKERKGWVLDEEFRNNNAS
notes: Rad26, S. cerevisiae ortholog of human CSB, Swi2/Snf2 family ATPase; also called Rad26(WT); yeast ortholog of CSB; source: E. coli Rosetta 2(DE3), purified (Ni-NTA agarose, Hi-Trap Heparin HP, Superdex 200)
B2: Rpb4/7 heterodimer of S. cerevisiae RNA polymerase II (complex)
chain 1: MNVSTSTFQTRRRRLKKVEEEENAATLQLGQEFQLKQINHQGEEEELIALNLSEARLVIKEALVERRRAFKRSQKKHKKKHLKHENANDETTAVEDEDDDLDEDDVNADDDDFMHSETREKELESIDVLLEQTTGGNNKDLKNTMQYLTNFSRFRDQETVGAVIQLLKSTGLHPFEVAQLGSLACDTADEAKTLIPSLNNKISDDELERILKELSNLETLY
chain 2: MFFIKDLSLNITLHPSFFGPRMKQYLKTKLLEEVEGSCTGKFGYILCVLDYDNIDIQRGRILPTDGSAEFNVKYRAVVFKPFKGEVVDGTVVSCSQHGFEVQVGPMKVFVTKHLMPQDLTFNAGSNPPSYQSSEDVITIKSRIRVKIEGCISQVSSIHAIGSIKEDYLGAI
notes: Rpb4 subunit of S. cerevisiae RNA polymerase II; Rpb7 subunit of S. cerevisiae RNA polymerase II; In the structures it stood assembled into 12-subunit Pol II; also called Pol II stalk

Assay [1] concerns the target T1, Rpb1 subunit of S. cerevisiae RNA polymerase II (S. cerevisiae, UniProt P04050 1-1733).
T1 construct: Rpb1, largest subunit of S. cerevisiae RNA polymerase II, within the assembled polymerase; Seen only as a subunit of Pol II in the structures
Nature of the assay: cryo-EM structure; Pol II(CPD)-Rad26 with 10-subunit Pol II lacking Rpb4/7, CPD lesion scaffold; 4.7 A. The conditions noted are these: both partners purified.

Assay [2] addresses T2, Rpb2 subunit of S. cerevisiae RNA polymerase II (S. cerevisiae, UniProt P08518 1-1224).
T2 construct: Rpb2, second largest subunit of S. cerevisiae RNA polymerase II, within the assembled polymerase; Seen only as a subunit of Pol II in the structures
Described as above. The conditions noted are these: both partners purified.

For assay [3], the target named is S. cerevisiae 12-subunit RNA polymerase II (S. cerevisiae) (UniProt P04050). Briefly: mass photometry; 12-subunit CPD-arrested Pol II complex (EC, on DNA/RNA scaffold) mixed with an equimolar amount of Rad26, diluted to 2, 5, 15 and 20 nM, with additional Elf1 (final 500 nM), incubated 20 min; Kd from particle counts, 12 reads.
For assay [4] the target is unchanged. Briefly: mass photometry; 12-subunit CPD-arrested Pol II complex (EC, on DNA/RNA scaffold) mixed with an equimolar amount of Rad26, diluted to 5, 10, 15 and 25 nM, incubated 20 min; no Elf1; Kd from particle counts, 12 reads.
For assay [5], the target named is B1. Nature of the assay: cryo-EM structure; Pol II(CPD)-Rad26-Elf1 (Closed state): Elf1 incubated with the Pol II(CPD)-Rad26 complex; 1 uM Pol II, 2 uM Rad26, 1.1 uM scaffold, 5 uM Elf1; 3.1 A. Conditions: both partners purified.

T1 sequence (P04050 whole entry): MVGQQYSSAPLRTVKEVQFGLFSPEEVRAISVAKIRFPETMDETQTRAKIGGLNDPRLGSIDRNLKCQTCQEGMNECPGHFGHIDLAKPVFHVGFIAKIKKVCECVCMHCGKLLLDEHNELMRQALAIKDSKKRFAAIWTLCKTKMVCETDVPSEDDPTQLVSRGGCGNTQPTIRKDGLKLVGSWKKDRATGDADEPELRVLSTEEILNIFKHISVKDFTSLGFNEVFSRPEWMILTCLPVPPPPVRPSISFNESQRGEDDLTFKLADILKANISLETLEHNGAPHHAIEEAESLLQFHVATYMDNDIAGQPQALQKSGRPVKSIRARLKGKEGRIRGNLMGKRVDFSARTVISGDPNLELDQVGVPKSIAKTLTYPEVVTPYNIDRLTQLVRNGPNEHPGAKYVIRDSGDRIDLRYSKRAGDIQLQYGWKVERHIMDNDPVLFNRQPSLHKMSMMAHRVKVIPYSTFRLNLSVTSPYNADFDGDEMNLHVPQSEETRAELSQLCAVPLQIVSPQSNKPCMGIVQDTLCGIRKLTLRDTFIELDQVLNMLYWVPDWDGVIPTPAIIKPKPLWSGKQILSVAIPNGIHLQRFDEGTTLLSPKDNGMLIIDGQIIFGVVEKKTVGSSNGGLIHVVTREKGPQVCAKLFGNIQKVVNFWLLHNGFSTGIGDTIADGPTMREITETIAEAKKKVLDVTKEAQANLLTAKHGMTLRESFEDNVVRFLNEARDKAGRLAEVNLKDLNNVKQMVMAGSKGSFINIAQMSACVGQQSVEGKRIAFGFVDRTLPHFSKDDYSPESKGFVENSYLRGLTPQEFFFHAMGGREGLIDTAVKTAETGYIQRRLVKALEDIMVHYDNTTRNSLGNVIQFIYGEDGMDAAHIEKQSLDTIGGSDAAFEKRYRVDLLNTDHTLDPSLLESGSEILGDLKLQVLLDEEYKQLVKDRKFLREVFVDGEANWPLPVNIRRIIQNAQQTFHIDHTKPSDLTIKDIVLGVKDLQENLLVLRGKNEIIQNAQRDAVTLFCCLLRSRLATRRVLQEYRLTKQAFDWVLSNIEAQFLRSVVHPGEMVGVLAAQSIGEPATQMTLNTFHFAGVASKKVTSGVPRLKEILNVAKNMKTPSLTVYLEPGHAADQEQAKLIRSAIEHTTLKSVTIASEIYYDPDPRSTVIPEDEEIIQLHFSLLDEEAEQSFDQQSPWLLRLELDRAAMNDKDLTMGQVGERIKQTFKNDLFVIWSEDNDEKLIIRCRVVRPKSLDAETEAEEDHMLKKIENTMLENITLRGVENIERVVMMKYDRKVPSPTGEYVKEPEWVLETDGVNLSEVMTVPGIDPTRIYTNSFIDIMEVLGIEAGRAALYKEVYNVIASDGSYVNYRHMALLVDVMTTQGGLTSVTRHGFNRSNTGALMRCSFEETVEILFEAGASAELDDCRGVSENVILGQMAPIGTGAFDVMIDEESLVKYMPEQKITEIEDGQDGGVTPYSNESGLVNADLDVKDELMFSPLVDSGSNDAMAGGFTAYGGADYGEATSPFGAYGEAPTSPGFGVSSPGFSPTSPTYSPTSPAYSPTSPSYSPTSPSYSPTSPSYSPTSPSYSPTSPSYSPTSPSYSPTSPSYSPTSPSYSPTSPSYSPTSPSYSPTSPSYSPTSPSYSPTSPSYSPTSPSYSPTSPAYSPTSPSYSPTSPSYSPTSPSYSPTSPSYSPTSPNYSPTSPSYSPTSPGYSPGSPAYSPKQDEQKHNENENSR
T2 sequence (P08518 whole entry): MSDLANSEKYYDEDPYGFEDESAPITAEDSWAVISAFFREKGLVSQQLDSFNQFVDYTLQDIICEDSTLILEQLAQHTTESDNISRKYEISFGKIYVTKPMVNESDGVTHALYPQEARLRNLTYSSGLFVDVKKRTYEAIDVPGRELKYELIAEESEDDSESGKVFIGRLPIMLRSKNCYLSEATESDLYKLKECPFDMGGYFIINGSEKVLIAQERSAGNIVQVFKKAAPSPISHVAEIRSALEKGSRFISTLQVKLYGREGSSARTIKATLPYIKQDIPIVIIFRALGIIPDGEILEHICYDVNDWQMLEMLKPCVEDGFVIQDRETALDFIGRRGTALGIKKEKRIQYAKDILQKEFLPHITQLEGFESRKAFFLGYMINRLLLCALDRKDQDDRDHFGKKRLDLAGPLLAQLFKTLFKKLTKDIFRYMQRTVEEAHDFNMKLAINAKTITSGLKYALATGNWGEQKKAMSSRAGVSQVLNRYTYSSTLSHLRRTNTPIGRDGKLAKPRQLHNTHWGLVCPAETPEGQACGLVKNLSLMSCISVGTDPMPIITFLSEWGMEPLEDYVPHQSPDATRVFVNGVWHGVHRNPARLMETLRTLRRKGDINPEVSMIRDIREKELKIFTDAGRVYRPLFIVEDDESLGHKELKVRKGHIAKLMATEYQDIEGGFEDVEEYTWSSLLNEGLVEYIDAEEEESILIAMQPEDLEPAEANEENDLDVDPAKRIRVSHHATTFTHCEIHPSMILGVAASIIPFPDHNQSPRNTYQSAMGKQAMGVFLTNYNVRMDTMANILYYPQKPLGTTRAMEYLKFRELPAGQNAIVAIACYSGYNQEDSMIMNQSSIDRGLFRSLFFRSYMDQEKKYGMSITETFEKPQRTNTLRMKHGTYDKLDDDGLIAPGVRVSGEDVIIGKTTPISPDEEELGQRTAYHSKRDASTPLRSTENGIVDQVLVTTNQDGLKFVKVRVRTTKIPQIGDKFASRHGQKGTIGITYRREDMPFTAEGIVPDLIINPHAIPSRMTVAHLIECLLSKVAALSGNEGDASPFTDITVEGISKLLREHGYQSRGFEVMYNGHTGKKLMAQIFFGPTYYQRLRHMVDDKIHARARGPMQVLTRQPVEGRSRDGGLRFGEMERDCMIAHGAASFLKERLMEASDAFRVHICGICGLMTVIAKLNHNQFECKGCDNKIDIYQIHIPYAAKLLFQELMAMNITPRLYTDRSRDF

As usually defined, the Kd is the concentration at which binding is half-saturated. A high value points to lower affinity. With B1, the binding result in assay [1] and in assay [2] was “binds” in each case. The values for the equilibrium dissociation constant (Kd) in assay [3] and in assay [4] were 9 nM and 23 nM, respectively.
B2: in assay [5], the binding result is given as “binds”.

Source of the values: paper PMC10801861, “Elf1 promotes Rad26’s interaction with lesion-arrested Pol II for transcription-coupled repair” (Proceedings of the National Academy of Sciences of the …, 2024).
